According to patent US20100233154A1, “TARGETED BINDING AGENTS DIRECTED TO HEPARANASE AND USES THEREOF 463” (MedImmune Limited, priority 2008, published 2010):

Legend:
[1] = test system: MDA MB231-Hpa1#4 cells; assay: Heparanase expression in cells cultured with antibody (Western blot); type: cell-based, human; details: 25 μg per ml antibody, 72 hrs, compared to untreated or IgG2 control
Description: MDA MB231-Hpa1#4 cells were cultured in the presence of 25 μg per ml anti-human heparanase antibody or control IgG2 antibody (Sigma Cat. No. 1504-1MG) for 72 hrs. Following the removal of culture medium, protein extracts were prepared from the cells in 100 μl RIPA buffer and separated on […] gels and transferred to nitrocellulose as described above. Western blots were probed with an anti-heparanase antibody that detected only pro-heparanase (SantaCruz Cat. No. SC25825).

[2] = test system: MCF7-Hpa1#19 xenograft; assay: Subcutaneous xenograft tumour growth, MCF7-Hpa1#19; type: in vivo, SCID mice; details: once weekly i.p.; 10E9.1 at 7.5 or 15 mg per kg
Description: MCF7-Hpa1#19 and HCT116 tumour cells were harvested from sub-confluent cultures. A total of 5×10^6 (MCF7-Hpa1#19) or 10^7 (HCT116) tumour cells were inoculated subcutaneously into the flank of male SCID mice. HCT116 tumour cells were implanted in PBS; […] cells were implanted in PBS containing 50% matrigel.
When tumours had attained ˜200 mm^3, tumour bearing mice were randomised into treatment groups and dosed with the following; PBS; an isotype matched control IgG2 antibody, 15 mg per kg; anti-heparanase antibody 10E9.1, 7.5 or 15 mg per kg. All treatments were administered once weekly i.p. Tumour growth was measured twice per week using calipers and tumour volumes calculated according to an ellipsoid volume is formula (3.142/6×length×width×width) from measures of the largest tumour diameter and two opposing widths (FIG. 11).

[3] = biological target: T1, murine heparanase (Mus musculus, UniProt Q6YGZ1); assay: Cross species capture ELISA, murine heparanase; type: binding; details: min 0.06, max 0.9 OD units
T1 construct: made in house; host or cells: Hek293 cells (conditioned medium), inferred for the ELISA
T1 sequence (Q6YGZ1 28-535): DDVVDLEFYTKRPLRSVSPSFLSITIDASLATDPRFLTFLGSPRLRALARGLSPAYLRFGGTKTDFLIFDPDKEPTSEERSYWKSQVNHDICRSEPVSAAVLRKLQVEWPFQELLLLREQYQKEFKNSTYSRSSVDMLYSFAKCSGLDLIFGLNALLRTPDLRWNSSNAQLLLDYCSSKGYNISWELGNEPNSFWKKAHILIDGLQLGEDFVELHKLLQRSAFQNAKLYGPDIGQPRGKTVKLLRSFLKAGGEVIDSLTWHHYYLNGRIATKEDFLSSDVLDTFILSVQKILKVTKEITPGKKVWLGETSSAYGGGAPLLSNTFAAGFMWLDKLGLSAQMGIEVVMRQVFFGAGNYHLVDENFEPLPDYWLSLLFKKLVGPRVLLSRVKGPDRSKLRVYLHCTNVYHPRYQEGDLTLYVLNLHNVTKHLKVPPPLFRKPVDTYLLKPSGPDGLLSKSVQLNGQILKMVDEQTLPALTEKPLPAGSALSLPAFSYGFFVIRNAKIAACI
Description: Initially, cross species binding to human, murine and cynomolgus heparanase was determined in an ELISA assay in which heparanase was captured onto plates using a rabbit anti-heparanase antibody (Raybiotech, Cat. IP-14-155). Exhaustive supernatants were added to the plates at a final dilution of 1:5 and bound antibody detected with a rabbit anti-human IgG Fc.

[4] = biological target: T2, cell surface heparanase of parental MCF7 or MCF7-Hpa1#19 cells (Homo sapiens, UniProt Q9Y251); assay: Cell surface heparanase activity assay; type: cell-based; details: 5 or 25 μg per ml
T2 construct: an expression construct comprising a full-length human heparanase cDNA under the control of a CMV promoter; expressed in transfected cells; host or cells: MCF7-Hpa1#19 (pCR3.1 vector, CMV promoter); parental MCF7 cells run alongside carry only low endogenous heparanase
T2 sequence (Q9Y251 158-543): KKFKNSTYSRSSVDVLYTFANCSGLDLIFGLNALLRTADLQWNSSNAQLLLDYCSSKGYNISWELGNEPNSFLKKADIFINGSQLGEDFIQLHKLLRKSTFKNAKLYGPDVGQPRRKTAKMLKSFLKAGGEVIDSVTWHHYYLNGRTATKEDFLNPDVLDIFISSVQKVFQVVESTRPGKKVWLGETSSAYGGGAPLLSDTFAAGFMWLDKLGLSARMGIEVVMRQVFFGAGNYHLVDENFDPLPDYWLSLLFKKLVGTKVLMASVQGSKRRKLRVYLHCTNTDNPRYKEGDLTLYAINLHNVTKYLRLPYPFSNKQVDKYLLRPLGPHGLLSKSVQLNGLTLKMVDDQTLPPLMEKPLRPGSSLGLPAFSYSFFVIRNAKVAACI
T2 sequence (Q9Y251 36-109): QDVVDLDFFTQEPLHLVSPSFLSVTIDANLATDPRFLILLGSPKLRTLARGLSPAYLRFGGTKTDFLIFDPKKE
Description: Cell surface heparanase activity was measured by a modification of the methodology used in the recombinant enzyme screen (Example 4). Parental MCF7 or MCF7-Hpa1#19 cells were cultured in non-tissue culture (non-adherent) 96-well plates, seeded at 10^6 cells per well. After overnight incubation at 37° C. anti-heparanase 10E9.1 or control IgG2 (Sigma Cat. 1504-1MG) antibodies were added to the cells, to a final concentration of 0.04-25 μg per ml, and incubated for 1 hr at room temperature. Thereafter Biotin Heparan Sulfate Europium Criptate (CisBio Cat. No. 61BHSKAA) was added to the cells (final concentration 20 ng per ml) and incubated at 37° C. for 1 hr. Degradation of the heparan sulfate substrate was determined following the addition of Streptavidin-XL665 (final concentration 250 ng per ml; CisBio Cat. No. 611SAXLA) to the cells and fluorescence measured using excitation at 330 nm and emission at 670 nm. In the absence of anti-heparanase antibody or in the presence of control IgG2, the minimum fluorescence at 670 nm is the result of degradation of heparan sulfate (see FIG. 10).

[5] = test system: MCF7-Hpa1#19 cells; assay: Accumulation of precursor heparanase in conditioned medium and cell lysates (Western blot); type: cell-based, human; details: 25 μg per ml, 24 hrs
Description: MCF7-Hpa1#19 cells were cultured until confluent and then grown overnight (˜12 hrs) at 37° C. in serum free medium. Following overnight incubation, culture medium was replaced with serum free medium containing 25 μg per ml anti-heparanase monoclonal antibody 10E9.1 or a control IgG2 antibody (Sigma Cat. No. 1504-1MG) and incubated for a further 24 hrs at 37° C. Cell cultures were then treated for 2 hrs with PMA 0.1-10 μM, to stimulate heparanase expression (Sasaki N et al, J Immunol. 172: 3830, 2004). Conditioned medium from the cultures was harvested and concentrated 10-fold and protein lysates in RIPA buffer were prepared from the cells. Proteins from conditioned medium or cell lysates were separated on […] gels as described previously and heparanase was detected using an anti-heparanase polyclonal antibody (Biochain Cat. No. Z5010104).

B1: 10E9.1: fully human anti-heparanase monoclonal antibody, G2κ; VH SEQ ID NO 2, VL SEQ ID NO 4; ATCC PTA-9489 (antibody, listed as Homo Sapiens, V domains shown)
VH: QVQLVQSGAEVKKPGASVKVSCKVSGYSLTELSIHWVRQAPGKGLEWMGGFDPEDGEIIFAQKFQGRVTLTEDISLDTAYMEVSSLRSEDTAVYYCATEGHDSGDYVGYYYYGLDVWGQGTTVTVSS
VL: DIQMTQSPSSLSASVGDRVTITCRASQDIRNFLAWYQQKPGKLPKLLIYAASTLQSGVPSRFSGSGSGTDFTLTISSLQPEDVASYYCQSHNSVPFTFGPGTKVDIR
notes: fully human anti-heparanase monoclonal antibody, G2κ; ATCC PTA-9489
Inhibition of heparanase expression [1]: significant inhibition of heparanase expression | Tumour growth inhibition [2]: not inhibited | Binding to heparanase Mouse [3]: 0.49 OD units | Inhibition of cell surface heparanase activity [4]: complete inhibition of cell surface heparanase activity | Accumulation of precursor (65 kDa) heparanase in the culture medium ([5]; compared to control IgG2): accumulation of precursor (65 kDa) heparanase in the culture medium | PMA-stimulated increase in intracellular heparanase ([5]; then PMA 0.1-10 μM 2 hrs): appeared to be attenuated
